Laboratory results: patent US9803013B2, “Biological materials and uses thereof” (BioInvent International AB, priority 2005, dated 2017)

Tests used:
MM cells = test: FACS analysis of BI-505 epitope expression on patients' plasma cells; assay type: binding, human; set-up: key to BI-505 epitope expression Intensity: BI-505 negative cells (−) are B-cells from patient number 8; (+), (++) and (+++) corresponding to patient number 8, 7 and 10; (+), (++) and (+++) corresponding to patient number 8, 7 and 10; (+), (++) and (+++) corresponding to patient number 8, 7 and 10; details: for BI-505 epitope expression Intensity: FACS on MM cells
From the text: (FIG. 16A) Analysis of myeloma cells in bone marrow from multiple myeloma patients by flow cytometry. Myeloma cells were gated based on expression of CD138, CD38, CD56 and CD45 according to international guidelines (Rawstron et al., 2008). Furthermore, intracellular staining was used to confirm monoclonal expression by K and A staining. B1-505 epitope expression was categorized as shown in the histogram (right position) with (+), (++) and (+++) corresponding to patient number 8, 7 and 10. BI-505 negative cells (−) are B-cells from patient number 8.
It was next evaluated the expression of the BI-505 epitope on bone marrow cells in patients with MM and related diseases (plasmacytoma, plasma cell leukemia, and light chain amyloidosis) by flow cytometry (FIG. 15 and Table 4). Myeloma cells were identified using fluorescent antibodies against surface antigens CD38, CD138, CD45 and CD56 (FIG. 16A) according to European Myeloma Network guidelines on multiparametric flow cytometry in MM (Rawstron et al., 2008) and confirming monoclonal MM cells with intracellular staining of λ and κ light chains. All MM patients expressed the BI-505 epitope on most (97±4%, mean±SD, patient n=22) myeloma cells (FIG. 15 and Table 4). The BI-505 epitope was generally very highly expressed on these cells, with median expression level 10 times higher than on normal B cells from the same patients. Similar results were obtained with a commercially available anti-ICAM-1 antibody (data not shown). Furthermore, the BI-505 epitope was highly expressed on myeloma cells in a patient in relapse who had received several different lines of therapy (FIG. 16B). Thus, ICAM-1 and the BI-505 epitope are strongly expressed on the surface of MM plasma cells.
Plasma cell surface expression of ICAM-1 and the BI-505 epitope was analyzed by FACS. Bone marrow aspirates were obtained from 29 patients diagnosed with MM or related diseases at the Department of Hematology, Skånes University Hospital, Lund. All human samples were collected using protocols approved by the Ethics Committee of Skåne University Hospital, and informed consent was obtained from all patients.
Bone marrow aspirates from 29 patients diagnosed with MM or related diseases (plasmocytoma, plasma cell leukemia, or amyloid light chain amyloidosis) at the Department of Hematology, Skånes University Hospital, Lund were analyzed by flow cytometry using 4 cocktails of antibodies, each suitable for recognizing plasma cells (Figure S3) after informed consent and with the approval of the local ethical committee. Clinical data were obtained from patients' charts.

U266 myeloma cells = test: NK-cell deficient NOD/Shi-scid/IL-2Rγ−/− mouse model; assay type: in vivo; details: U266 grafted to NOD/Shi-scid/IL-2Rγ−/− mice
Procedure: (FIG. 20F) Animal survival following BI-505 or control antibody treatment in a disseminated NK-cell deficient NOD/Shi-scid/IL-2Rγ^−/− mouse model comprising i.v. grafted U266 myeloma cells. ***p<0.001.
Six-eight weeks-old female NOD/Shi-scid IL-2Rγ^−/− mice were obtained from Taconic, Denmark. Five million (5×10^6) RPMI-8226 or U266 tumor cells in 200 μL of RPMI 1640 were intravenously injected into the caudal vein (day 0). The tumor cell injection was performed 2 hr after whole body irradiation of mice (1.5 Gy, Cesium 137, IBL 637). At day 4, mice were randomized into 6 groups and treatment was initiated according to the schedule below.

B1: B11: fully human IgG1 antibody specific for ICAM-1; VH and VL sequences of FIG. 10 (SEQ ID NOs. 6 and 8) (antibody, listed as Homo sapiens, V domains shown)
VH: EVQLLESGGGLVQPGGSLRLSCAASGFTFSNAWMSWVRQAPGKGLEWVAFIWYDGSNKYYADSVKGRFTISRDNSKNTLYLQMNSLRAEDTAVYYCARYSGWYFDYWGQGTLVTVSS
VL: QSVLTQPPSASGTPGQRVTISCTGSSSNIGAGYDVHWYQQLPGTAPKLLIYDNNNRPSGVPDRFSGSKSGTSASLAISGLRSEDEADYYCQSYDSSLSAWLFGGGTKLTVLG
95%: BI-505 epitope expression Positive cells (%) (MM cells; patient 10, MM) | BI-505 epitope expression Positive cells (%) (MM cells; patient 12, nsMM) | BI-505 epitope expression Positive cells (%) (MM cells; patient 19:2, MM)
+: BI-505 epitope expression Intensity (MM cells; patient 10, MM) | BI-505 epitope expression Intensity (MM cells; patient 27, PCL)
++: BI-505 epitope expression Intensity (MM cells; patient 5, MM) | BI-505 epitope expression Intensity (MM cells; patient 9, MM) | BI-505 epitope expression Intensity (MM cells; patient 16, MM) | BI-505 epitope expression Intensity (MM cells; patient 23, AL)
significant antitumor activity: antitumor activity (U266 myeloma cells)
77%: BI-505 epitope expression Positive cells (%) (MM cells; patient 27, PCL)
100%: BI-505 epitope expression Positive cells (%) (MM cells; patient 3, MM) | BI-505 epitope expression Positive cells (%) (MM cells; patient 4, nsMM) | BI-505 epitope expression Positive cells (%) (MM cells; patient 5, MM) | BI-505 epitope expression Positive cells (%) (MM cells; patient 8, MM) | BI-505 epitope expression Positive cells (%) (MM cells; patient 9, MM) | BI-505 epitope expression Positive cells (%) (MM cells; patient 11, MM) | BI-505 epitope expression Positive cells (%) (MM cells; patient 13, MM) | BI-505 epitope expression Positive cells (%) (MM cells; patient 14, MM) | BI-505 epitope expression Positive cells (%) (MM cells; patient 15, MM) | BI-505 epitope expression Positive cells (%) (MM cells; patient 17, MM) | BI-505 epitope expression Positive cells (%) (MM cells; patient 18, MM) | BI-505 epitope expression Positive cells (%) (MM cells; patient 20, MM) | BI-505 epitope expression Positive cells (%) (MM cells; patient 24, AL) | BI-505 epitope expression Positive cells (%) (MM cells; patient 29, PC)
98%: BI-505 epitope expression Positive cells (%) (MM cells; patient 1, MM) | BI-505 epitope expression Positive cells (%) (MM cells; patient 6, MM) | BI-505 epitope expression Positive cells (%) (MM cells; patient 7, MM) | BI-505 epitope expression Positive cells (%) (MM cells; patient 25, LCDD/MM)
97±4%: myeloma cells expressing the BI-505 epitope (MM cells; all MM patients, mean±SD, patient n=22)
88%: BI-505 epitope expression Positive cells (%) (MM cells; patient 16, MM)
76%: BI-505 epitope expression Positive cells (%) (MM cells; patient 26, PCL)
97%: BI-505 epitope expression Positive cells (%) (MM cells; patient 2, MM) | BI-505 epitope expression Positive cells (%) (MM cells; patient 23, AL)
two-fold: increase of mean BI-505 expression in myeloma cells after first relapse (MM cells; patient, bone marrow number 2 versus diagnosis)
+++: BI-505 epitope expression Intensity (MM cells; patient 1, MM) | BI-505 epitope expression Intensity (MM cells; patient 2, MM) | BI-505 epitope expression Intensity (MM cells; patient 4, nsMM) | BI-505 epitope expression Intensity (MM cells; patient 6, MM) | BI-505 epitope expression Intensity (MM cells; patient 7, MM) | BI-505 epitope expression Intensity (MM cells; patient 8, MM) | BI-505 epitope expression Intensity (MM cells; patient 11, MM) | BI-505 epitope expression Intensity (MM cells; patient 13, MM) | BI-505 epitope expression Intensity (MM cells; patient 14, MM) | BI-505 epitope expression Intensity (MM cells; patient 15, MM) | BI-505 epitope expression Intensity (MM cells; patient 17, MM) | BI-505 epitope expression Intensity (MM cells; patient 18, MM) | BI-505 epitope expression Intensity (MM cells; patient 19:1, MM) | BI-505 epitope expression Intensity (MM cells; patient 19:2, MM) | BI-505 epitope expression Intensity (MM cells; patient 19:3, MM) | BI-505 epitope expression Intensity (MM cells; patient 20, MM) | BI-505 epitope expression Intensity (MM cells; patient 21, MM) | BI-505 epitope expression Intensity (MM cells; patient 22, MM) | BI-505 epitope expression Intensity (MM cells; patient 24, AL) | BI-505 epitope expression Intensity (MM cells; patient 25, LCDD/MM) | BI-505 epitope expression Intensity (MM cells; patient 26, PCL) | BI-505 epitope expression Intensity (MM cells; patient 28, PC) | BI-505 epitope expression Intensity (MM cells; patient 29, PC)
86%: BI-505 epitope expression Positive cells (%) (MM cells; patient 22, MM)
91%: BI-505 epitope expression Positive cells (%) (MM cells; patient 19:3, MM)
93%: BI-505 epitope expression Positive cells (%) (MM cells; patient 19:1, MM) | BI-505 epitope expression Positive cells (%) (MM cells; patient 21, MM) | BI-505 epitope expression Positive cells (%) (MM cells; patient 28, PC)
